Data reported in patent publication US20260242735A1 (UNIVERSIT T BASEL, published 2026).

How the values were obtained:
Experiment in all cases: flow cytometry, transfected cells
human CD33 N20D = human CD33 N20D (human, UniProt P20138 18-364)
human CD33 F21S = human CD33 F21S (human, UniProt P20138 18-364)
human CD33 W22N = human CD33 W22N (human, UniProt P20138 18-364)

Measured: binding result

human CD33 W22N, sequence (P20138 18-364 W22N limits assumed): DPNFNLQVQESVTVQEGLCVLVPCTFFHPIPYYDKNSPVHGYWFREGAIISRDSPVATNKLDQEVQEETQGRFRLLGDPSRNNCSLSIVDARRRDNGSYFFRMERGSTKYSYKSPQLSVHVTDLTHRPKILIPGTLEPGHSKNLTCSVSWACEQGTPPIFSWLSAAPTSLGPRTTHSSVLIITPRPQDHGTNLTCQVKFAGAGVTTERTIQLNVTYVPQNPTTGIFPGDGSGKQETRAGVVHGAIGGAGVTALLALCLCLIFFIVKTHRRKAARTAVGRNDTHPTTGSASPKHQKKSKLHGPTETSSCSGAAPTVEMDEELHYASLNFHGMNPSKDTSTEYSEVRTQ
human CD33 N20D, sequence (P20138 18-364 N20D limits assumed): as the sequence (P20138 18-364 W22N limits assumed) above, with N3D, N5W counted along it
human CD33 F21S, sequence (P20138 18-364 F21S limits assumed): as the sequence (P20138 18-364 W22N limits assumed) above, with F4S, N5W counted along it

B1: Refmab #3 (antibody, human IgG1, V domains shown)
VH: QVQLVQSGAEVKKPGSSVKVSCKASGYTFTDYNMHWVRQAPGQGLEWIGYIYPYNGGTGYNQKFKSKATITADESTNTAYMELSSLRSEDTAVYYCARGRPAMDYWGQGTLVTVSS
VL: DIQMTQSPSSLSASVGDRVTITCRASESVDNYGISFMNWFQQKPGKAPKLLIYAASNQGSGVPSRFSGSGSGTDFTLTISSLQPDDFATYYCQQSKEVPWTFGQGTKVEIK
no binding (tested: below 20%): human CD33 N20D | human CD33 F21S | human CD33 W22N
